Laboratory results: patent publication US20170340735A1 (published 2017)
Residue numbers refer to the chain shown, from its start.

How the values were obtained:
[1] = target: T1, human TIGIT on the cell surface (human, UniProt Q495A1 22-244); assay: cell-based or functional assay
T1 sequence: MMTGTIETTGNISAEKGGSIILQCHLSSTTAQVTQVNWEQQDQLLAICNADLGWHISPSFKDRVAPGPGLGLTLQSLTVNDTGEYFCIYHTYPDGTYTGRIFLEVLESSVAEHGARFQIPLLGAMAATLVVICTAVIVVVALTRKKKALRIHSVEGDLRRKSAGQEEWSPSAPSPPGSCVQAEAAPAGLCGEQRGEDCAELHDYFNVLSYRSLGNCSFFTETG

[2] = target: T2, human PVRL4-His (human, UniProt Q96NY8 32-349); assay: BLI, antibody on AHC sensor, human PVRL4-His in solution
T2 construct: also called Nectin-4; not shown: His tag
T2 sequence (looked up): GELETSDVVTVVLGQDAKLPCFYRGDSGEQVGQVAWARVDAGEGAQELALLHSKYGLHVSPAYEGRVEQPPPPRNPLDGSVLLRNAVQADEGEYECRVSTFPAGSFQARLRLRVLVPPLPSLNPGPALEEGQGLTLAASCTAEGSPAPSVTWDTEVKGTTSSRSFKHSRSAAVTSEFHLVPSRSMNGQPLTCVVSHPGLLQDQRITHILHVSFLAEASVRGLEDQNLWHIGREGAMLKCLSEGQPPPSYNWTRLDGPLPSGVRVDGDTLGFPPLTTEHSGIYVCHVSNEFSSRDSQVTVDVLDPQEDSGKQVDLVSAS
Method: The BLI analysis was performed at 30° C. using 1× kinetics buffer as assay buffer. AHC sensors were first presoaked in assay buffer for greater than 5 minutes. Antibody (5 μg/mL) was captured on the sensor for 300 seconds. Sensors were then dipped in assay buffer for 120 seconds to establish a baseline before measuring binding to human PVRL4-His protein. Sensors were then dipped into human PVRL4-His (200 nM in assay buffer) for 200 seconds to measure association. Dissociation of PVRL4 was then measured by dipping sensors into assay buffer for 200 seconds. Results were analyzed using Octet® Data Analysis Software Version 8.2.0.7.

[3] = target: T3, recombinant monomeric human TIGIT-His (human, UniProt Q495A1 22-141); assay: MSD-SET solution equilibrium titration, monomeric antigen
T3 construct: also called hTIGIT; not shown: His tag
T3 sequence: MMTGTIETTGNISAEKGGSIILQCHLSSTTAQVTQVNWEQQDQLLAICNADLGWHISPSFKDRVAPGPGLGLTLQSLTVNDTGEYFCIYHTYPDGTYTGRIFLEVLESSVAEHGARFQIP
Method: (§1) See Estep et al., supra, incorporated by reference in its entirety. Briefly, solution equilibrium titrations (SET) were performed in PBS+0.1% IgG-Free BSA (PBSF) with antigen (TIGIT monomer) held constant at 10-100 pM and incubated with 3- to 5-fold serial dilutions of Fab or mAbs starting at 10 pM-10 nM. Antibodies (20 nM in PBS) were coated onto standard bind MSD-ECL plates overnight at 4° C. or at room temperature for 30 min. Plates were then blocked by BSA for 30 min with shaking at 700 rpm, followed by three washes with wash buffer (PBSF+0.05% Tween 20). SET samples were applied and incubated on the plates for 150s with shaking at 700 rpm followed by one wash. Antigen captured on a plate was detected with 250 ng/mL sulfotag-labeled streptavidin in PBSF by incubation on the plate for 3 min. The plates were washed three times with wash buffer and then read on the MSD Sector Imager 2400 instrument using 1× Read Buffer T with surfactant. The percent free antigen was plotted as a function of titrated antibody in Prism and fit to a quadratic equation to extract the KD. To improve throughput, liquid handling robots were used throughout MSD-SET experiments, including SET sample preparation.

[4] = target: T4, recombinant monomeric cynomolgus monkey TIGIT-His (cynomolgus monkey); assay: as above
T4 construct: also called Cyno TIGIT His; cTIGIT; not shown: His tag
Method: as §1

[5] = target: T3, recombinant monomeric human TIGIT-His; assay: BLI (ForteBio), IgG on AHQ sensor, 100 nM monomeric antigen, 1:1 model
Method: (§2) Quantitative binding of antibodies to recombinant monomeric human, mouse (SEQ ID NO: 3), cynomolgus monkey TIGIT was measured using biolayer interferometry (BLI) with a FORTEBIO®. […] FORTEBIO affinity measurements were performed by loading IgGs on-line onto AHQ sensors. Sensors were equilibrated off-line in assay buffer for 30 min and then monitored on-line for 60 seconds for baseline establishment. Sensors with loaded IgGs were exposed to a single concentration of antigen (100 nM) for 3 minutes. Afterwards they were transferred to assay buffer for 3 minutes for off-rate measurement. Kinetics were analyzed using the 1:1 binding model.

[6] = target: T4, recombinant monomeric cynomolgus monkey …; assay: as above
Method: as §2

[7] = target: T1, human TIGIT on the cell surface; assay: flow cytometry, antibody titrated against labeled PVR-Fc binding to human TIGIT Jurkat cells
Method: (§3) Quantitative ligand blocking studies were conducted by using a cell surface TIGIT binding assay.

[8] = target: T1, human TIGIT on the cell surface; assay: flow cytometry, antibody titrated against labeled PVRL2-Fc binding to human TIGIT Jurkat cells
Method: as §3

[9] = target: T3, recombinant monomeric human TIGIT-His; assay: BLI (Octet QKe), antibody on AHC sensor, several concentrations of human TIGIT-His, 1:1 global fit, average
Method: A strategy of capturing anti-TIGIT antibodies on sensors following association/dissociation of monomeric TIGIT proteins was used to avoid avidity effects in the assay. The BLI analysis was performed at 29° C. using 1× kinetics buffer (ForteBio) as assay buffer. Anti-human IgG Fc capture (AHC) biosensors (ForteBio) were first presoaked in assay buffer for over five minutes. Anti-TIGIT antibody (5 μg/mL) was captured on the sensor for 300 seconds. Sensors were then dipped in assay buffer for 120 seconds to establish a baseline before measuring binding to each TIGIT protein. […] Dissociation of TIGIT was measured by dipping the sensors into assay buffer for 600, 1200, or 1800 seconds, depending on the experiment (600 seconds was only used for mouse TIGIT-His). Agitation at all steps was 1000 rpm.
Kinetic parameters were generated with Octet® Data Analysis Software Version 8.2.0.7 using reference subtraction, dissociation based inter-step correction, 1-to-1 binding model, and global fit (Rₘₐₓ unlinked by sensor).

T4 sequence (chain, as listed by the source limits assumed): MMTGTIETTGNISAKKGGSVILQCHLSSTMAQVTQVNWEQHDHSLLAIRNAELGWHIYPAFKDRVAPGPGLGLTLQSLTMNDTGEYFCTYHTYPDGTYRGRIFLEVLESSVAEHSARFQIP

B1: SEC1 (format not stated) (antibody, V domains shown)
VH: EVQLVESGGGLTQPGKSLKLSCEASGFTFSSFTMHWVRQSPGKGLEWVAFIRSGSGIVFYADAVRGRFTISRDNAKNLLFLQMNDLKSEDTAMYYCARRPLGHNTFDSWGQGTLVTVSS
VL: DIVMTQSPSSLAVSPGEKVTMTCKSSQSLYYSGVKENLLAWYQQKPGQSPKLLIYYASIRFTGVPDRFTGSGSGTDYTLTITSVQAEDMGQYFCQQGINNPLTFGDGTKLEIK
Average EC50, IL-2 production, human TIGIT Jurkat/anti-CD3 HT-1080 co-culture assay [1]: 8.46 nM

B2: MAB3-IgG4 (antibody, V domains shown)
VH: QLQLQESGPGLVKPSETLSLTCTVSGGSISSTSHYWGWIRQPPGKGLEWIGSIYYSGSTFYNPSLKSRVTISVDTSKNQFSLKLSSVTAADTAVYYCARDANYYGSAWAFDPWGQGTLVTVSS
VL: EIVLTQSPATLSLSPGERATLSCRASQSVSSYLAWYQQKPGQAPRLLIYDASNRATGIPARFSGSGSGTDFTLTISSLEPEDFAVYYCQQHFNLPTFGGGTKVEIKR
Average EC50, IL-2 production, human TIGIT Jurkat/anti-CD3 HT-1080 co-culture assay [1]: 0.33 nM | binding result [2]: no binding (tested: 200 nM) | Kd [3]: 0.0081 nM | Kd [4]: 0.035 nM | Kd [5]: 0.332 nM | Kd [6]: 0.802 nM | IC50 [7]: 1.6 nM | IC50 [8]: 1.2 nM

B3: MAB19-IgG4 (antibody, V domains shown)
VH: QVQLVQSGAEVKKPGASVKVSCKASGYTFTSHYMGWVRQAPGQGLEWMGVINPSMGATSYAQKFQGRVTMTRDTSTSTVYMELSSLRSEDTAVYYCARLHVSGSYYPAYLDYWGQGTMVTVSS
VL: EIVMTQSPATLSVSPGERATLSCRASQSVSSNLAWYQQKPGQAPRHLIYGASTRATGIPARFSGSGSGTEFTLTISSLQSEDFAVYYCQQYIVFPWTFGGGTKVEIKR
Average EC50, IL-2 production, human TIGIT Jurkat/anti-CD3 HT-1080 co-culture assay [1]: 0.2 nM | binding result [2]: no binding (tested: 200 nM) | IC50 [7]: 6.4 nM | IC50 [8]: 2 nM

B4: MAB20-IgG4 (antibody, V domains shown)
VH: B3 VH with M48V, V50I
VL: B3 VL
Average EC50, IL-2 production, human TIGIT Jurkat/anti-CD3 HT-1080 co-culture assay [1]: 0.68 nM | binding result [2]: no binding (tested: 200 nM) | Kd [3]: 0.03 nM | IC50 [7]: 2.3 nM | IC50 [8]: 1.9 nM | Kd [9]: 0.46 nM | koff [9]: 0.00038 s⁻¹ | kon [9]: 890000 M⁻¹ s⁻¹

B5: MAB21-IgG4 (antibody, V domains shown)
VH: B3 VH with V50I, A61T, Q65R
VL: B3 VL
Average EC50, IL-2 production, human TIGIT Jurkat/anti-CD3 HT-1080 co-culture assay [1]: 0.61 nM | binding result [2]: no binding (tested: 200 nM) | Kd [3]: 0.08 nM | IC50 [7]: 1 nM | IC50 [8]: 0.8 nM | Kd [9]: 0.36 nM | koff [9]: 0.0005 s⁻¹ | kon [9]: 1.4e+06 M⁻¹ s⁻¹

B6: MAB18-IgG4 (antibody, V domains shown)
VH: QVQLVQSGAEVKKPGASVKVSCKASGYTFPAYYMHWVRQAPGQGLEWMGIINPSLGLTSYARKFQGRVTMTRDTSTSTVYMELSSLRSEDTAVYYCARGGRTTWIGAFDIWGQGTMVTVSS
VL: EIVMTQSPATLSVSPGERATLSCRASQSVSSNLAWYQQKPGQAPRLLIYGASTRATGIPARFSGSGSGTEFTLTISSLQSEDFAVYYCQQYVVWPPLTFGGGTKVEIKR
Average EC50, IL-2 production, human TIGIT Jurkat/anti-CD3 HT-1080 co-culture assay [1]: 0.25 nM | binding result [2]: no binding (tested: 200 nM) | Kd [5]: 0.448 nM | Kd [6]: 72 nM | IC50 [7]: 1.8 nM | IC50 [8]: 1.9 nM | Kd [9]: 0.81 nM | koff [9]: 0.00059 s⁻¹ | kon [9]: 750000 M⁻¹ s⁻¹

B7: MAB16-IgG4 (antibody, V domains shown)
VH: B6 VH with P30R, A31E, L55I, F108L
VL: B6 VL
Average EC50, IL-2 production, human TIGIT Jurkat/anti-CD3 HT-1080 co-culture assay [1]: 1.11 nM | binding result [2]: no binding (tested: 200 nM) | Kd [3]: 0.07 nM | Kd [5]: 0.378 nM | Kd [6]: 70.4 nM | IC50 [7]: 2.1 nM | IC50 [8]: 1.3 nM | Kd [9]: 1.1 nM | koff [9]: 0.00035 s⁻¹ | kon [9]: 450000 M⁻¹ s⁻¹

B8: MAB14-IgG4 (antibody, V domains shown)
VH: B6 VH with R62Q
VL: B6 VL
Average EC50, IL-2 production, human TIGIT Jurkat/anti-CD3 HT-1080 co-culture assay [1]: 0.71 nM | binding result [2]: no binding (tested: 200 nM) | Kd [3]: 0.38 nM | Kd [5]: 1.23 nM | IC50 [7]: 2.6 nM | IC50 [8]: 1.6 nM

B9: MAB17-IgG4 (antibody, V domains shown)
VH: B6 VH with M34I, F108L
VL: B6 VL
Average EC50, IL-2 production, human TIGIT Jurkat/anti-CD3 HT-1080 co-culture assay [1]: 0.13 nM | binding result [2]: no binding (tested: 200 nM) | Kd [3]: 0.041 nM | Kd [5]: 0.429 nM | Kd [6]: 110 nM | IC50 [7]: 2.6 nM | IC50 [8]: 1.9 nM

B10: MAB13-IgG4 (antibody, V domains shown)
VH: B6 VH with P30G, A31N, R62Q
VL: B6 VL
Average EC50, IL-2 production, human TIGIT Jurkat/anti-CD3 HT-1080 co-culture assay [1]: 1.4 nM | binding result [2]: no binding (tested: 200 nM) | Kd [3]: 0.4 nM | Kd [5]: 1.44 nM | IC50 [7]: 2.1 nM | IC50 [8]: 1.8 nM

B11: MAB15-IgG4 (antibody, V domains shown)
VH: B6 VH with P30R, A31E, L55I
VL: B6 VL
Average EC50, IL-2 production, human TIGIT Jurkat/anti-CD3 HT-1080 co-culture assay [1]: 0.21 nM | binding result [2]: no binding (tested: 200 nM) | Kd [3]: 0.21 nM | Kd [5]: 0.526 nM | Kd [6]: 79.4 nM | IC50 [7]: 2.2 nM | IC50 [8]: 1.1 nM | Kd [9]: 0.58 nM | koff [9]: 0.00066 s⁻¹ | kon [9]: 1.1e+06 M⁻¹ s⁻¹
